According to patent publication US20180094062A1 (Hoffmann-La Roche, published 2018):
Each block holds one binder with its values, some of them ahead of it.

Columns and labels:
[1] = biological target: T1, HER2 ECD peptide hairpin, overlapping immobilized 15-mer peptides (human, UniProt P04626 269-287, limits assumed); test: CelluSpots array of overlapping 15-mer peptides
T1 construct: domain: peptide hairpin (β-hairpin); CelluSpots 15-mer library; cysteines replaced by serines; also called hairpin motive in the HER2 ECD
T1 peptide (looked up): PALVTYNTDTFESMPNPEG

[2] = biological target: T2, HER1 (EGFR) ECD peptide hairpin, overlapping immobilized 15-mer peptides (human, UniProt P00533 265-283, limits assumed); test: CelluSpots array of overlapping 15-mer peptides
T2 construct: domain: peptide hairpin (β-hairpin); CelluSpots 15-mer library; cysteines replaced by serines; also called hairpin motive in EGFR
T2 peptide (looked up): PPLMLYNPTTYQMDVNPEG

[3] = biological target: T3, HER3 ECD-HRG complex (Heregulin-activated Her-3 ECD) (human, UniProt P21860 20-643); test: SPR, 90 nM Heregulin*Her-3 ECD complex on captured antibody
T3 construct: receptor-ligand complex made by preincubating HER3 ECD with a five-fold molar excess of Heregulin; also called Heregulin/Her-3 ECD; Heregulin-complexed Her-3 ECD

[4] = biological target: T4, human recombinant HER3 Extracellular Domain (HER3 ECD) (human, UniProt P21860 20-643); test: SPR Biacore T200, antibody captured, HER3-ECD as analyte, 37 C
T4 construct: 68 kDa; also called human-Her3-ECD

[5] = biological target: T5, HER2, full length, on cells (transfected HEK293, MCF7) (human, UniProt P04626 23-1255); test: IHC on HEK293 cells transiently transfected with full length HER2
Description: (§1) All selected clones were tested for reactivity and specificity in IHC. […] After an additional fixation in formalin overnight the Agarose blocks were embedded in paraffin. Untransfected HEK293 cells were used as negative controls and treated accordingly to the transfected cells. After paraffin embedding 3 μm thin sections were prepared using a microtome. The sections were mounted on glass microscopy slides and dried for 2 h. All further steps of the immunohistochemical staining procedure were carried out using a Ventana Benchmark XT. The slides were dewaxed and antigen retrieval was performed by applying heat for 1 hour. For antigen retrieval the Ventana buffer CC1 was used. The antibodies were used at a concentration of 1 μg/ml. For the detection of bound antibody the Ventana UltraView detection kit was used.

[6] = biological target: T6, HER1, full length, on transfected HEK293 cells (human, UniProt P00533 25-1210); test: IHC on HEK293 cells transiently transfected with full length HER1
T6 construct: HEK293 transiently transfected with a plasmid coding for full length HER1; also called EGFR
Description: as §1

[7] = biological target: human HER2 Extracellular Domain (HER2 ECD) (human, UniProt P04626 23-652); test: ELISA, antigen coated, hybridoma supernatant
Description: (§2) For the ELISA screening an antigen down format was used. […] Hybridoma Supernatant was added to the plates and incubated for 1 h at room temperature. Bound antibody was detected with a HRP-labeled F(ab′)₂ goat anti-mouse Fcγ (Dianova) and ABTS (Roche) was used as a HRP-substrate.
(§3) As negative controls the scaffold proteins TtSlyDcas and TgSlyDΔIF were used.

[8] = biological target: T4, human recombinant HER3 Extracellular …; test: ELISA, antigen coated, hybridoma supernatant
Description: as §2, §3

TtSlyDcas-Her3 = biological target: T7, TtSlyDcas-Her3; test: ELISA, antigen coated, hybridoma supernatant
T7 chain: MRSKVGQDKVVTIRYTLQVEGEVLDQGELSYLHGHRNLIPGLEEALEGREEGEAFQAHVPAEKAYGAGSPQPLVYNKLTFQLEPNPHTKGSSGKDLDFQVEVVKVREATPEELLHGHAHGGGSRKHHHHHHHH
Description: as §2, §3

TgSlyDΔIF = biological target: T8, TgSlyDΔIF; test: ELISA, antigen coated, hybridoma supernatant
T8 construct: negative control scaffold without insert (Thermococcus gammatolerans SlyD); also called TgSlyDAIF
T8 chain: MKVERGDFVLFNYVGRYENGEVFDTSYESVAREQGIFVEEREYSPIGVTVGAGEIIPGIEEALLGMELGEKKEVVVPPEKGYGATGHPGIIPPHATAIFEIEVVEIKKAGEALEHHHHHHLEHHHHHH
Description: as §2, §3

[9] = biological target: T9, human HER1 Extracellular Domain (HER1 ECD) (human, UniProt P00533 25-645); test: ELISA, antigen coated, hybridoma supernatant
T9 construct: also called EGFR ECD
Description: as §2, §3

TtSlyDcas = biological target: T10, TtSlyDcas; test: ELISA, antigen coated, hybridoma supernatant
T10 construct: negative control scaffold without the HER3 β-hairpin
T10 chain: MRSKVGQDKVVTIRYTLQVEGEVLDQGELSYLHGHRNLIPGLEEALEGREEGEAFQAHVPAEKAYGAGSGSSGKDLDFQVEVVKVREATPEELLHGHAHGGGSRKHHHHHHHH
Description: as §2, §3

TgSlyDcys-Her3 = biological target: T11, TgSlyDcys-Her3; test: ELISA, antigen coated, hybridoma supernatant
T11 chain: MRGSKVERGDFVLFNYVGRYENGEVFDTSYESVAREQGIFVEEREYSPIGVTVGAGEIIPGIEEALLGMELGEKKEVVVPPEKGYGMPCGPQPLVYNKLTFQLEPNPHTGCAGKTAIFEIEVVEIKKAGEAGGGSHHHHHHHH
Description: as §2, §3

TtSlyDcys-Her3 = biological target: T12, TtSlyDcys-Her3; test: ELISA, antigen coated, hybridoma supernatant
T12 chain: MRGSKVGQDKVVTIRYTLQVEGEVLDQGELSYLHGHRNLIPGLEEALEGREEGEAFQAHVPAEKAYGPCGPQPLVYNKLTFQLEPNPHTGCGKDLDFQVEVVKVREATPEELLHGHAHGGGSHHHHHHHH
Description: as §2, §3

[10] = biological target: T13, human recombinant HER4 Extracellular Domain (HER4 ECD) (human, UniProt Q15303 26-651); test: ELISA, antigen coated, hybridoma supernatant
T13 sequence: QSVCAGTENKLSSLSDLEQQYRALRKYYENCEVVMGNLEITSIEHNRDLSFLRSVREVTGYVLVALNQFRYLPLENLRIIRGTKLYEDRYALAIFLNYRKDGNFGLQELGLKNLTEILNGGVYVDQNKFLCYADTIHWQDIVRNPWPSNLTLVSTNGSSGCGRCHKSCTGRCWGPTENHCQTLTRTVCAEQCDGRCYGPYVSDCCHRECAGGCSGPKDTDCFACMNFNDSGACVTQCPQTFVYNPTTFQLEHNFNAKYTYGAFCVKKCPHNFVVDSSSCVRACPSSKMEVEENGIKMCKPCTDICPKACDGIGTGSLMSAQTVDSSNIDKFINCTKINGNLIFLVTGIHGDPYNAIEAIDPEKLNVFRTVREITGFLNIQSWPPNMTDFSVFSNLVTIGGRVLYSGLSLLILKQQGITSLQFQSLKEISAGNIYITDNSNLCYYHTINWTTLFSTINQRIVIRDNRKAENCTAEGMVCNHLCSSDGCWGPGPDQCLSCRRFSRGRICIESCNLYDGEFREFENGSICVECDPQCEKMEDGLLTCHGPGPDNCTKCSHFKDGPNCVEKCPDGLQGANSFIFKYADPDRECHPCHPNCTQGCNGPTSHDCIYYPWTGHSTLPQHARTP
Description: as §2, §3

TgSlyDser-Her3 = biological target: T14, TgSlyDser-Her3; test: ELISA, antigen coated, hybridoma supernatant
T14 chain: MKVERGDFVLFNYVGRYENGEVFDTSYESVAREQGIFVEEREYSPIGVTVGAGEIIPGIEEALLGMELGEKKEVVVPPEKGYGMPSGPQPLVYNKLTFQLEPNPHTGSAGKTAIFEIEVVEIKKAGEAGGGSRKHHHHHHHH
Description: as §2, §3

[11] = biological target: T15, HER4, full length, on transfected HEK293 cells (human, UniProt Q15303 26-1308); test: IHC on HEK293 cells transiently transfected with full length HER4
Description: as §1

[12] = biological target: T5, HER2, full length, on cells …; test: IHC on fixed transfected HEK293 cells
Description: as §1

[13] = biological target: T6, HER1, full length, on transfected …; test: IHC on fixed transfected HEK293 cells
Description: as §1

[14] = biological target: T15, HER4, full length, on transfected …; test: IHC on fixed transfected HEK293 cells
Description: as §1

SBP-tagged HER3-ECD = biological target: T16, SBP-tagged HER3-ECD (human, UniProt P21860 20-643); test: time-resolved fluorescence, 10 nM Eu-labelled Heregulin-beta on plate-bound SBP-tagged HER3-ECD
T16 construct: not shown: SBP tag
Description: On the next day the wells were washed three times with washing buffer (PBS+0.05% Tween-20) and blocked with PBS containing 1% BSA for one hour. After another three washes with washing buffer, 40 μl antibody solution (in Delfia Binding Buffer) was added to each well as a 2× stock of the desired final concentrations (10⁻³ to 10³ nM, alternatively 10⁻⁴ to 10² nM). Immediately […] of 20 nM Europium-labeled Heregulin-beta (PeproTech, Cat. #100-03) was added to achieve a final concentration of 10 nM. The plates were incubated on a shaker at room temperature for two hours. Following three washes with Delfia Wash Buffer, Delfia Enhancement Solution was added and incubated on a shaker for 15 minutes (light protected). Finally, the plates were measured in a Tecan Infinite F200 reader using a time-resolved fluorescence measurement protocol.

binding result [1]: no binding (tested: 1 µg/mL)
binding result [2]: no binding (tested: 1 µg/mL)
t½ diss [3]: 18 min
B1: anti-HER3/HER4 antibody M-05-74 (antibody, V domains shown)
VH: QVQLQQSGAELAKPGASVKMSCKTSGYTLTDYWIHWVKQRPGQGLEWIGYINPYTGYTESNQKFKDKATLTADKSSNTAYIQLSSLTSEDSAVYYCARPYYYGDYWGQGTTLTVSS
VL: QIVLTQSPAIMSASPGERVTITCSASSSVSYMHWFQQKPGTSPKLLIYSTSNLASGVPARFSGSGSGTSYSLTISRMEAEDAATYYCQQRSSYPFTFGSGTKLEIK
notes: also called M-074; M-5-74

Kd [4]: 0.3 nM
B2: anti-HER3 antibody MOR09823 (described in WO2012/22814) (antibody, V domains shown)
VH: QVQLVESGGGLVQPGGSLRLSCAASGFTFSSYAMSWVRQAPGKGLEWVSVTGAVGRTYYPDSVKGRFTISRDNSKNTLYLQMNSLRAEDTAVYYCARWGDEGFDIWGQGTLVTVSS
VL: DIQMTQSPSSLSASVGDRVTITCRASQGISNWLAWYQQKPGKAPKLLIYGASSLQSGVPSRFSGSGSGTDFTLTISSLQPEDFAVYYCQQYSSFPTTFGQGTKVEIKR

binding result [5]: no binding
binding result [6]: no binding
OD 405 nm [7]: 0.03 OD
binding result [7]: no binding
OD 405 nm [8]: 3.1 OD
OD 405 nm (TtSlyDcas-Her3): 1.4 OD
OD 405 nm (TgSlyDΔIF): 0.021 OD
OD 405 nm [9]: 0.025 OD
binding result [9]: no binding
OD 405 nm (TtSlyDcas): 0.022 OD
OD 405 nm (TgSlyDcys-Her3): 1.62 OD
OD 405 nm (TtSlyDcys-Her3): 1.53 OD
OD 405 nm [10]: 0.03 OD
binding result [10]: no binding
OD 405 nm (TgSlyDser-Her3): 1.4 OD
binding result [11]: no binding
B3: anti-HER3 antibody M-17-07 (antibody, V domains shown)
VH: EVQLQQSGTVLARPGASVKMSCKASGYSFTSYWIHWVKQRPGQGLEWIGAIYPGNSDTTYNQKFKGKAKLTAVTSASTAYMELSSLTNEDSAVYYCARTGVWTSYYFDYWGQGTTLTVSS
VL: DIQMTQSPASLSASVGETVTITCRASENIYSNLAWYQQKQGKSPQLLVYAATNLADGVPSRFSGSGSGTQFSLRINSLQPEDFGSYYCQHFYGTPFTFGTGTKLEIK
notes: mouse hybridoma clone

OD 405 nm [7]: 0.023 OD
binding result [7]: no binding
OD 405 nm [8]: 3.06 OD
OD 405 nm (TtSlyDcas-Her3): 1.31 OD
OD 405 nm (TgSlyDΔIF): 0.022 OD
OD 405 nm [9]: 0.022 OD
binding result [9]: no binding
OD 405 nm (TtSlyDcas): 0.022 OD
OD 405 nm (TgSlyDcys-Her3): 1.37 OD
OD 405 nm (TtSlyDcys-Her3): 1.53 OD
OD 405 nm [10]: 0.051 OD
binding result [10]: no binding
OD 405 nm (TgSlyDser-Her3): 1.66 OD
binding result [12]: no binding (tested: 1 µg/ml)
binding result [13]: no binding (tested: 1 µg/ml)
binding result [14]: no binding (tested: 1 µg/ml)
B4: anti-HER3 antibody M-17-12 (antibody, V domains shown)
VH: B3 VH
VL: B3 VL
notes: mouse hybridoma clone; VH and VL stated identical to those of M-17-02

binding result (SBP-tagged HER3-ECD): binds
B5: Europium-labeled Heregulin-beta (PeproTech, Cat. #100-03) (ligand)
chain: SHLVKCAEKEKTFCVNGGECFMVKDLSNPSRYLCKCPNEFTGDRCQNYVMASFYKHLGIEFMEAE
modifications: also: europium label, position not given here
notes: bought fragment; also called HRG; Human Heregulin β-1 fragment (as provided from Preprotech)
